From the nanobody polyreactivity screen of Harvey et al. (2022)

experiment: yeast display, Sf9 membrane polyspecificity reagent, FACS + sequencing; frameworks hold sequencing errors
Outline: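 Galactose-induced (36–48 hours) yeast carrying a synthetic nanobody display library were exposed to 10% biotinylated, detergent-solubilized Sf9 membrane reagent at 4 °C for 1 hour. FACS followed streptavidin microbead enrichment, using low and high (top ~1%) gates for expression (anti-HA) and reagent binding (streptavidin). Colony PCR, MiSeq 2 × 250 sequencing and CDR-length filtering followed. Labels for polyreactivity reflect the gate of origin.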

| Sequence | polyreactivity (PSR sort gate) |
| --- | --- |
| QVQLVESGGGLVQAGGSLRLSCAASGSIFPAYTMGRYRQAPGKEREMVAAIPYSGARSTYYADSVKGRFTISRDNAKNTVYLQMYSLKPEDTAVYYCNARSRARYFYDMDYWGQGTLVTVSS | low polyreactivity |
| QVQLVESGGGLVQAGGSLRLSCAASGSIFPDNAMGWYRQAPGKERELVATIRSTGGTNYADSVKGRFTISRDNEKNTVYLQMNSLKPEDTAVYYCATDLWSTTGSEYDYWGQGTQVTVSS | low polyreactivity |
| QVQLVESGGGLVQAGGSLRLSCAASGSIFPDNVMGWYRQAPGKEREFVAAISWTDGSTRYADSVKGRFTISRDNAKNTVYLQMNSLKPEDTAVYYCNVGTRASYQEGDYWGQGTQVTVSS | low polyreactivity |
| QVQLVESGGGLVQAGGSLRLSCAASGSIFPFYAMGWYIQAPGKERELVAAISDRGGSTYYADSVKGRFTISRDNAKNTVYLQMNSLKPEDTAVYYCAADKYSQWSSHTRVRYDYWGQGTQVTVSS | low polyreactivity |
| QVQLVESGGGLVQAGGSLRLSCAASGSIFPFYAMGWYRQAPGKERELVAAISDRGGSTYYADSVKGRFTISRDNAKNTVYLQMNSLKPEDTAVYYGAKGGEVSQGYTDEYDYWGQGTQVTVSS | low polyreactivity |
| QVQLVESGGGLVQAGGSLRLSCAASGSIFPFYAMGWYRQAPGKERELVAGISGSAGRTYYADSVKGRFTISRDNAKNTVYLQMNSLKPEDTAVYYCAAVYYSSLYDYWGQGTQVTVSS | high polyreactivity |
| QVQLVESGGGLVQAGGSLRLSCAASGSIFPGNAMGWYRQAPGKERELVAAISSSGGRTYYADSVKGRFTISRDNAKNTVYLQMNSLKPEDTAVYYCNRLQVYSYYPYYPWYNYWGQGTQVTVSS | high polyreactivity |
| QVQLVESGGGLVQAGGSLRLSCAASGSIFPGNGMGWYRQAPGKERELVAAITWSVATTYYADSVKGRFTISRDNAKNTVYLQMNSLKPEDTAVYYCAADDAYPYDWGQGTQVTVSS | low polyreactivity |
| QVQLVESGGGLVQAGGSLRLSCAASGSIFPGYAMGWYRQAPGKERELVATISTRGSTYYADSVKGRFTISRDNAKNTVYLQMNSLKPEDTAVYYCNTDFPTAQYDYWGQGTQVTVSS | low polyreactivity |
| QVQLVESGGGLVQAGGSLRLSCAASGSIFPGYAMGWYRQAPGKERELVATITWSGGSTYYADSVKGRFTISRDNAKNTVYLQMNSLKPVDTAVYYCNADSNWYYQWNYYGLYDYWGQGTQVTVSS | low polyreactivity |
| QVQLVESGGGLVQAGGSLRLSCAASGSIFPHNAMGWYRQAPGKERALVASITSRGGITYYADSVKGRFTISRDNAKNTVYLQMNSLKPEDTAVYYCNGVLYHYSPTDSWITYDYWGQGTQVTVSS | low polyreactivity |
| QVQLVESGGGLVQAGGSLRLSCAASGSIFPHNAMGWYRQAPGTERELVASITSRGGITYYADSVKGRFTISRDNAKNTVYLQMNSLKPEDTAVYYCAADLYIYPYDYWGQGTQVTVSS | low polyreactivity |
| QVQLVESGGGLVQAGGSLRLSCAASGSIFPINARGWYRQAPGKERELVAAISRRTGSTYYPDSVKGRFTISRDNAKNTVYVQMNSLKPEDTAVYYCAASYGTTRQRWLDYWGQGTQVTVSS | high polyreactivity |
| QVQLVESGGGLVQAGGSLRLSCAASGSIFPIYAMGWYRQAPGKERELVAALNRSGGSTYYADSVKGRFTISRDNAKNTVYLQMNSLKPEDTAVYYCNADYGYHNQLFWGYYGWSSDHWGQGTQVTVSS | low polyreactivity |
| QVQLVESGGGLVQAGGSLRLSCAASGSIFPIYAMGWYRQAPRKERELVAAISGSGARTYYADSVKGRFTISRDNAKNTVYLQMNSLKPEDTAVYYCNAKYGYDSEARIVKPVRYDYWGQGTQVTVSS | high polyreactivity |
| QVQLVESGGGLVQAGGSLRLSCAASGSIFPLYAMGWYRQAPGKERELVAAISWSGGSTYYADSVKGRFTISRDNAKNTVYLQMNSLKPEDTAVYYCATLYISTSGYIYEGDYWGQGTQVTVSS | high polyreactivity |
| QVQLVESGGGLVQAGGSLRLSCAASGSIFPPNAMGWYRQAPGKERELVAAITWSGGSTYYADSVKGRFTISRDNAKNTVYLQRNSLKPEDTAVYYCAKEGARSYNVRAYYYRNYYYWGQGTQVTVSS | high polyreactivity |
| QVQLVESGGGLVQAGGSLRLSCAASGSIFPPYAMGWYRHAPGKERELVATITIRGGSTYYADSVKGRFTISRDNAKNTVYLQMNSLKPEDTAVYYCAADYSKYYRRYYYWGQGTQVTVSS | high polyreactivity |
| QVQLVESGGGLVQAGGSLRLSCAASGSIFPPYVMGWYRQAPGKERELVASITTSGGSTYYADSVKGRFTISRDNAKNPVYLQMNSLKPEDTAVYYCAARWYYGGKSAGPGGGYWGQGTQVTVSS | low polyreactivity |
| QVQLVESGGGLVQAGGSLRLSCAASGSIFPQNGMGWYRQAPGKERELVAAISSNGDNTYADSVKGRFTISRDNAKNTVYLQMNSLKPEDTAVYYCAAERRRTAGGVYHPWEDYWGQGTQVTVSS | low polyreactivity |
| QVQLVESGGGLVQAGGSLRLSCAASGSIFPQYAMGWYRQAPGKERELVAVISWSGGRTYYADSVKGRFTISRDNAKNTVYLQMNSLKPEDTAVYYCAAKYWYQRYAQSSYTRYYWGQGTQVTVSS | high polyreactivity |
| QVQLVESGGGLVQAGGSLRLSCAASGSIFPRNAMGWYRQAPGKERELVAAIRKSGGSTYYADSVKGRFTISRDNAKNTVYLQMNSLKPEDTAVYYCAKPYSVCCWQSPIYNYWGQGTQVTVSS | low polyreactivity |

| Sequence | polyreactivity (PSR sort gate) |
| --- | --- |
| QVQLVESGGGLVQAGGSLRLSCAASGSIFPRNTMGWYRQAPGKEREFVAAITTTGSRTYYADSVKGRFTISRDNAKNTVYLQMNSLKPEDTAVYYCAATRRWYPTKLYGYWGQGTQVTVSS | high polyreactivity |
| QVQLVESGGGLVQAGGSLRLSCAASGSIFPSNAMGWYRQAPGKERELVAAINRDGITNYADSVKGRFTISRDNAKNTVYLQMNSLKPEDTAVYYCAAEFAWQWWEYGYWGQGTQVTVSS | low polyreactivity |
| QVQLVESGGGLVQAGGSLRLSCAASGSIFPSYAMGWYRQAPGKERELVAAISRSAGSTYYADSVKGRFTISRDNAKNTVYLQMNSLKPEVTAVYYCAADVYSSRYRYDYWGQGTQVTVSS | low polyreactivity |
| QVQLVESGGGLVQAGGSLRLSCAASGSIFPSYAMGWYRQAPGKERELVATISGSGTRTYYADSVKGRFTISRDNAKNTFYLQMNSLKPEDTAVYYCARLPPGDMDYWGQGTQVTVSS | low polyreactivity |
| QVQLVESGGGLVQAGGSLRLSCAASGSIFPSYDMGWYRQAPGKERELVAAIRSGGNTTYADSVKGRFTISRDNAKNTVYLQMNSLKPEDTAVYYCAKGYYYYSTVQFYYWGQGTQVTVSS | low polyreactivity |
| QVQLVESGGGLVQAGGSLRLSCAASGSIFPSYVMGWYRQAPGKERELVAGITSSGGSTYYADSVKGRFTISRDNAKNTVYLQMNSLKPEDTAVYYCAARWKPASYGYGYWGQGTQVTVSS | low polyreactivity |
| QVQLVESGGGLVQAGGSLRLSCAASGSIFPTNAMGWYRQAPGKERELVAAISRGDSTYYADSVKGRFTISRDNAKNTVYLQMNSLKPEDTAVYYCAARRSRTLWSPFYYWGQGTQVTVSS | low polyreactivity |
| QVQLVESGGGLVQAGGSLRLSCAASGSIFPVNAMGWYRQAPGKEREWVAAISVSGGRTYYADSVKGRFTISRDNAKNTVYLQMNSLKPEDTAVYYCNKLLARGYASGYDYWGQGTQVTVSS | high polyreactivity |
| QVQLVESGGGLVQAGGSLRLSCAASGSIFPVNTMGWYRQAPGKERELVAAITQRGGRTYYADSVKGRFTISRDNAKNTVYFQMNSLKPEDTAVYYCNRDLGAGGYDYWGQGTQVTVSS | low polyreactivity |
| QVQLVESGGGLVQAGGSLRLSCAASGSIFPVYAMGWYRQAPGKERELVAAINSSGGSTYYADSVKWRFTISRDNAKNTVYLQMNSLKPEDTAVYYCAAEISTASYYAKTYDYWGQGTQVSVSS | low polyreactivity |
| QVQLVESGGGLVQAGGSLRLSCAASGSIFPWNTMGWYRQAPGKERELVARISTSGASTYYADSVKGRFTISRDNAKNTVYLQMNSLKPEDTAVYYCAKVRHYGGRSWWYYYWGQGTQVTVSS | high polyreactivity |
| QVQLVESGGGLVQAGGSLRLSCAASGSIFPWYTMGWYRQAPGKERELVAAITSSGGGTYYADSVKGRFTISRDNAKNTVYLQINSLKPEDTAVYYCAAGLDWGPEYEYWGQGTQVTVSS | low polyreactivity |
| QVQLVESGGGLVQAGGSLRLSCAASGSIFPYNDMGWYRQAPGKERELVAAISDSAGSTYYADSVKGRFTISRDNAKNTVYLQMNSLKPEDTAVYYCADYDYWGQGTQVTVSS | low polyreactivity |
| QVQLVESGGGLVQAGGSLRLSCAASGSIFPYNDMGWYRQAPGKERELVARITNGGSTNYADSVKGRFTISRDNAKNTVYLQMNSLKPEDTAVYYCNKDGTQEFAPDGHEYWGQGTQVTVSS | low polyreactivity |
| QVQLVESGGGLVQAGGSLRLSCAASGSIFPYNVMGWYRQAPGKERELVAAITTGGRTNYADSVKGRFTISRDNAKNTVYLQMNSLKPEDTAVYYCAADRVVFGYWYYYWGQGTQVTVSS | high polyreactivity |
| QVQLVESGGGLVQAGGSLRLSCAASGSIFPYNVMGWYRQAPGKERELVAAITTGGRTNYADSVKGRFTISRDNAKNTVYLQMNSLKPEDTAVYYCAARYGYYDSRRWYYYWGQGTQVTVSS | high polyreactivity |
| QVQLVESGGGLVQAGGSLRLSCAASGSIFPYNVMGWYRQAPGKERELVASIDGRGASTYYADSVKGRFTISRDNAKNTVYLQKNSLKPEDTAVYYCAAGYEPYAAWYYYWGQGTQVTVAS | low polyreactivity |
| QVQLVESGGGLVQAGGSLRLSCAASGSIFPYYAMGWYRQAPGKERELVAAITSAGSTNYADSVKGRFTISRDNAKNTVYLQMNSLKPEDTAVYYCAKEYYASGRSYRYPQYDYWGQGTQVTVSS | low polyreactivity |
| QVQLVESGGGLVQAGGSLRLSCAASGSIFPYYAMGWYRQAPGKERELVAAITWSGGNTYYADSVKGRFTISRDNAKNTVYLQMNSLKPEDTAVYYFNALYRKYTGYDGYDYWGQGTQVTVSS | high polyreactivity |
| QVQLVESGGGLVQAGGSLRLSCAASGSIFPYYAMGWYRQAPGKERELVADITSSVGSTYYADSVKGRFTISRDNAKNTVYLQMNSLKPEDTAVYYCAALYWFYVYPFTEYDYWGQGTQVTVSS | low polyreactivity |
| QVQLVESGGGLVQAGGSLRLSCAASGSIFPYYAMGWYRQAPGKERELVATITYRGGSTNYADSVKGRFTISRDNAKNTVYLQMNSLKPEDTAVYYCAAYGYVLASPDPYSFVKLGYWGQGTQVTVSS | low polyreactivity |
